Measured values published in the supplement of paper PMC7125110.
± gives the standard error. Fewer inactive variants are shown than the library holds.

B1: glmS ribozyme (parent)
chain: AUAAAAGCGCCAGAACUACAGAAAUGUAGUUGACGAGGAGGAGGUUUAUCGAAUUUUCGGCGGAUGCCUCCAAA

Variants of: B1
Assay: self-cleavage kobs at 2500 uM GlcN6P; higher = faster cleavage; RNA array
Conditions: with glucosamine-6-phosphate
How it was run: (§1)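 A hybridised Cy3 probe tracked barcoded ribozyme variants, transcribed in situ by E. coli RNA polymerase on sequenced MiSeq chips, at 37 °C. The variants received 40 μM to 10 mM glucosamine-6-phosphate in HEPES/KCl/Mg(OAc)2 buffer. kobs came from decay fits and kcat and KM from weighted Michaelis–Menten fits.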

Variant	self-cleavage kobs at 2500 uM GlcN6P
AUAAAAGCGCCAGAACUACAGAAAUGUAGUUGACGAGGAUGAGGUUUUUCGUAUUUUCGGCGGAUGCCUCCAAA	< 1e-05 s⁻¹
AUAAAAGCGCCAGAACUACAGAAAUGUAGUUGACGAGGACGAGAUUUAUCGAAAUUUCGGAGGGUGCCUCCAAA	< 1e-05 s⁻¹
AUAAAAGCGCCAGAACUACAGAAAUGUAGUUGACGAGGAGCAGGUUUAUCGCAUGUUCGCCGGAUGCUUCCAAA	< 1e-05 s⁻¹
AUAAAAGCGCCAGAACUACAGAAAUGUAGUUGACGAGGAGCGGGUUUAUCGAAUUUUCGGCGGAUGCCUACAAA	6.34e-05 ± 1.5e-05 s⁻¹
AUAAAAGCGCCAGAACUACAGAAAUGUAGUUGACGAGGAAGAGGUUUAUCGAAUACUCGGCGGAUGCCUCCAAA	0.000458 ± 0.00017 s⁻¹
AUAAAAGCGCCAGAACUACAGAAAUGUAGUUGACGAGGACGAGGUUUAUCGAAGUUUCGGCGGAUGCCUUCAAA	0.000933 ± 0.00021 s⁻¹
AUAAAAGCGCCAGAACUACAGAAAUGUAGUUGACGAGGAGUAGGUUUAUCGAUUUGUCGGCGGAUGCCUCCAAA	0.00031 ± 9.3e-05 s⁻¹
AUAAAAGCGCCAGAACUACAGAAAUGUAGUUGACGAGGACGAGGUUUAUCGAAUUUUCGGCGGUUGCUUCCAAA	< 1e-05 s⁻¹
AUAAAAGCGCCAGAACUACAGAAAUGUAGUUGACGAGGAGAAGGUUUAUCGACCUUUCGCCGUAUGCCUCCAAA	< 1e-05 s⁻¹
AUAAAAGCGCCAGAACUACAGAAAUGUAGUUGACGAGGUGGAGGUUUAUCGAAUUUUCGGCGGACGCCUGCAAA	0.000144 ± 3.7e-05 s⁻¹
AUAAAAGCGCCAGAACUACAGAAAUGUAGUUGACGAGGUGGAGGUUUAUCGAAUUUUCAGCGGCUGCCUCCAAA	< 1e-05 s⁻¹
AUAAAAGCGCCAGAACUACAGAAAUGUAGUUGACGAGGAGUAGGUUUAUUUAAUUUUCGGCGGAUGCCUCCAAA	< 1e-05 s⁻¹
AUAAAAGCGCCAGAACUACAGAAAUGUAGUUGACGAGGAGGUGGUUUAUCGAGUUUUCGGGGGAUGCCUCCAAA	< 1e-05 s⁻¹
AUAAAAGCGCCAGAACUACAGAAAUGUAGUUGACGAGGUGGAGGUUUAUCGAAUUUUCGGCGGAUACGUCCAAA	4.5e-05 ± 2e-05 s⁻¹
AUAAAAGCGCCAGAACUACAGAAAUGUAGUUGACGAGGAGAUGGUUUAUCGAAUUUUCGGCAGAUGCCUCCAAA	< 1e-05 s⁻¹
AUAAAAGCGCCAGAACUACAGAAAUGUAGUUGACGAGGAGUAGGUUUAUCGAAUUCUCGGCGGAUGCCUGCAAA	0.00166 ± 0.00032 s⁻¹
AUAAAAGCGCCAGAACUACAGAAAUGUAGUUGACGAGGAGCACGUUAAUCGAAUUUUCGGCGGGUGCCUCCAAA	< 1e-05 s⁻¹
AUAAAAGCGCCAGAACUACAGAAAUGUAGUUGACGAGGAUGAGGUUUAACGAAUUUUCGGCCGAUGCUUCCAAA	< 1e-05 s⁻¹

Variant	self-cleavage kobs at 2500 uM GlcN6P
AUAAAAGCGCCAGAACUACAGAAAUGUAGUUGACGAGGAGCAGGUUUCUCGAAUUUUCGGCGGGUGCCUCCAAA	< 1e-05 s⁻¹
AUAAAAGCGCCAGAACUACAGAAAUGUAGUUGACGAGGAGGGGGUUUUUCGAAUUAUCGGCGGAUGCCUCCAAA	0.000146 ± 4.2e-05 s⁻¹
AUAAAAGCGCCAGAACUACAGAAAUGUAGUUGACGAGGAGAAGGUAUAUCGAAUUUUCGGCGGAUACCUCCAAA	9.01e-05 ± 3.1e-05 s⁻¹
AUAAAAGCGCCAGAACUACAGAAAUGUAGUUGACGAGGAGAAGGUUUACCGAAUUUACUGCGGAUGCGUCCAAA	< 1e-05 s⁻¹
AUAAAAGCGCCAGAACUACAGAAAUGUAGUUGACGAGGAGGUGGUUUAUCGAGUUUUCGGAGGAUGGCUCCAAA	< 1e-05 s⁻¹
AUAAAAGCGCCAGAACUACAGAAAUGUAGUUGACGAGGGGGAGGUUUAUUGAAUAUUCGGCGGAUGCCUUCAAA	4.43e-05 ± 1.7e-05 s⁻¹
AUAAAAGCGCCAGAACUACAGAAAUGUAGUUGACGAGGGGGAGGUUUAUCGAAUUUUCGGCGGAUACCGCCAAA	3.43e-05 ± 1.3e-05 s⁻¹
AUAAAAGCGCCAGAACUACAGAAAUGUAGUUGACGAGGAGGCGGUUUAUCGAAUUUUCGGCGGACGCCUCGAAA	< 1e-05 s⁻¹
AUAAAAGCGCCAGAACUACAGAAAUGUAGUUGACGAGGAGUAGGUUCAUCUAAUUUUCGGCGGAUGCCUCCAAA	< 1e-05 s⁻¹
AUAAAAGCGCCAGAACUACAGAAAUGUAGUUGACGAGGAGAAGGUUUAUCGAGUAUUCGGCGGAUGCCUCCAAA	0.000666 ± 0.00022 s⁻¹
AUAAAAGCGCCAGAACUACAGAAAUGUAGUUGACGAGGAGCAGGUUUAUCGAAUUUUCUGCGGAUGUCUCCAAA	< 1e-05 s⁻¹
AUAAAAGCGCCAGAACUACAGAAAUGUAGUUGACGAGGAGUACGUUUAUCUAAUUUUCGGCGGAUGCGUCCAAA	< 1e-05 s⁻¹
AUAAAAGCGCCAGAACUACAGAAAUGUAGUUGACGAGGAGUAGGUUUAUGGAAUUUCUGGCGGAUGCCUUCAAA	< 1e-05 s⁻¹
AUAAAAGCGCCAGAACUACAGAAAUGUAGUUGACGAGGGGGAGGUUGAUCGAAUUUUCGGCGGAUGCGUCCAAA	5.94e-05 ± 2.4e-05 s⁻¹
AUAAAAGCGCCAGAACUACAGAAAUGUAGUUGACGAGGACGAGGUUUAUCGAAUUCUCGGCGGAUGCCUCAAAA	9.43e-05 ± 2.2e-05 s⁻¹
AUAAAAGCGCCAGAACUACAGAAAUGUAGUUGACGAGGAUGAGGUUGAUCGAACUUUCGGCGGAUGCCUCCAAA	0.00079 ± 0.00014 s⁻¹
AUAAAAGCGCCAGAACUACAGAAAUGUAGUUGACGAGGGGGAGGAUUAUCGAAUUUUCGGCGGUUGCCUCCAAA	0.000381 ± 0.00012 s⁻¹

Variants of: B1
Assay: self-cleavage kobs at 10000 uM GlcN6P; higher = faster cleavage; RNA array
Conditions: with glucosamine-6-phosphate
How it was run: as §1

Variant	self-cleavage kobs at 10000 uM GlcN6P
AUAAAAGCGCCAGAACUACAGAAAUGUAGUUGACGAGGACGAGGUUUAUCGAAUUUUCGGCGGUUGCUUCCAAA	< 1e-05 s⁻¹
AUAAAAGCGCCAGAACUACAGAAAUGUAGUUGACGAGGGGGAGGAUUAUCGAAUUUUCGGCGGUUGCCUCCAAA	0.000499 ± 0.00011 s⁻¹
